Results as given in patent CN118063606A (JIANGXI SAIJI BIOTECHNOLOGY CO LTD; HANGZHOU SAIJI …, dated 2024).

What was measured:
[1] = molecular target: 重组人THSD7A蛋白 (recombinant human THSD7A protein) (human) (UniProt Q9UPZ6); test: indirect ELISA on coated THSD7A, against the anti-THSD7A human serum standard
[2] = molecular target: 重组人THSD7A蛋白 (recombinant human THSD7A protein) (human) (UniProt Q9UPZ6); test: indirect ELISA on coated THSD7A, serum standard read on the rhA3 standard curve
[3] = molecular target: 重组人THSD7A蛋白 (recombinant human THSD7A protein) (human) (UniProt Q9UPZ6); test: indirect ELISA on coated THSD7A, value read from the curve of the anti-THSD7A human serum standard
[4] = molecular target: T1, 重组人THSD7A蛋白 (recombinant human THSD7A protein) (human, UniProt Q9UPZ6 48-1606); test: phage ELISA / ELISA of supernatants on the antigen, then chemiluminescence immunoassay of purified antibody
T1 construct: Expressed by transient transfection of 293T cells; no tag is mentioned; also called hTHSD7A; 人源THSD7A
T1 sequence (Q9UPZ6 48-1606 limits assumed): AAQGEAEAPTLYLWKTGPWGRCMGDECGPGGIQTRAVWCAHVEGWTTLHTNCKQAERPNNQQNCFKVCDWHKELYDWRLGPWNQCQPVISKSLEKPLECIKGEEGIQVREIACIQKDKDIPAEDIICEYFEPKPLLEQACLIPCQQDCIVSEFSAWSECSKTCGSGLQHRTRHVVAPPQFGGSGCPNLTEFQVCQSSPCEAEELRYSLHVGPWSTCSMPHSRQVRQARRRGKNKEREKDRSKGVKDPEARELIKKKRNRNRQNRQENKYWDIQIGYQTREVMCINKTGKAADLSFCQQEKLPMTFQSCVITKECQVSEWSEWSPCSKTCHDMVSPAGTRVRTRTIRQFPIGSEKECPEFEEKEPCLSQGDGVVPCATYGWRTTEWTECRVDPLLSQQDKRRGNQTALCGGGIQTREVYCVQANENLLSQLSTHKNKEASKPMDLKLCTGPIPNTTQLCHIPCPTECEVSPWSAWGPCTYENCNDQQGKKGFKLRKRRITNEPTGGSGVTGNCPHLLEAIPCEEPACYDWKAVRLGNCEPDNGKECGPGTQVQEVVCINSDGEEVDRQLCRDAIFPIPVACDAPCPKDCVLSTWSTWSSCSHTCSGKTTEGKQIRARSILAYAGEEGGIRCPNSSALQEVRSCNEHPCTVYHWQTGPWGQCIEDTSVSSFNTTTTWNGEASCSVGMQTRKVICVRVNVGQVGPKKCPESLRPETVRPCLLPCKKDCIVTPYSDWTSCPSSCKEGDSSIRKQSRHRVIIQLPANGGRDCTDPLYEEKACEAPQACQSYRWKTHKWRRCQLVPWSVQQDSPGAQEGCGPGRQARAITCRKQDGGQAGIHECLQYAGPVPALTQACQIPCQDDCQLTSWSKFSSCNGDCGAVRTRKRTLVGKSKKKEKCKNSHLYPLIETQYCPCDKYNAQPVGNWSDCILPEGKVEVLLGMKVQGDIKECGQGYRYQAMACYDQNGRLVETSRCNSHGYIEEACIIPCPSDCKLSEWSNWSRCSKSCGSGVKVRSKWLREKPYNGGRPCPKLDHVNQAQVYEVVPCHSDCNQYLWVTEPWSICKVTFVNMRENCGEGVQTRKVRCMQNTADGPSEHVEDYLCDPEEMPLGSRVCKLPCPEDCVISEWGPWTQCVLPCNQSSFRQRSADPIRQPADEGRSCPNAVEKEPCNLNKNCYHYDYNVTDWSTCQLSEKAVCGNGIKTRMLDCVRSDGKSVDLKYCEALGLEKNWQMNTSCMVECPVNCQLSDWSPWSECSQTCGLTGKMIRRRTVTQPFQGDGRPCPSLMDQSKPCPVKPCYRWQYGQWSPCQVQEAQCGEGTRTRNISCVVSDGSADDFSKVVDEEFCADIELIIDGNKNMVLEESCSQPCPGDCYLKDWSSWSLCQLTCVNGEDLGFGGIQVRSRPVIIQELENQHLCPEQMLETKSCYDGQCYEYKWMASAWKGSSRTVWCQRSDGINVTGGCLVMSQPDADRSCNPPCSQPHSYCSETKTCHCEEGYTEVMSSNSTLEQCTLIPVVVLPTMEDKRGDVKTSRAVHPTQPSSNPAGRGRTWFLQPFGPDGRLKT

| Binder | THSD7A抗体活性 per ng [1] [U/ng] | 比活 at 4ng/mL rhA3 [1] [U/ng] | 比活 at 20ng/mL rhA3 [1] [U/ng] | 比活 at 100ng/mL rhA3 [1] [U/ng] | 比活 (serum standard 12U/mL on rhA3 curve) [2] [U/ng] | 比活 (serum standard 60U/mL on rhA3 curve) [2] [U/ng] | 比活 (serum standard 300U/mL on rhA3 curve) [2] [U/ng] | THSD7A抗体浓度 (read from serum standard curve) at 4ng/mL rhA3 [3] [U/mL] | THSD7A抗体浓度 (read from serum standard curve) at 20ng/mL rhA3 [3] [U/mL] | THSD7A抗体浓度 (read from serum standard curve) at 100ng/mL rhA3 [3] [U/mL] | binding result [4] |
| --- | --- | --- | --- | --- | --- | --- | --- | --- | --- | --- | --- |
| 嵌合单抗rhA3 (重组嵌合抗体A3单抗) (antibody, human IgG4 S228P, kappa, V domains shown) VH: QSVKESGGRLVTPGGTLTLTCTVSGFSLSTYYMSWVRQAPGKGLEWIGSIESYGDRYYATWAKGRFTISKTSSTTVDLKMTSLTASDTATYFCTRNDLSWDNDNIWGPGTLVTVSS VL: DVQMTQTPSSVSVSVGGTVTINCQASQSVYGNNELNWYQQKSGQPPKLLIYKAGTLASGVPSRFSGSGSGTQFTLTISDLECDDAAIYYCQGGYWGQRAFGGGTKLEIKR | 3 | 3.01 | 2.99 | 3.05 | 3.01 | 2.97 | 2.97 | 12 | 60.5 | 305 | – |
| 小鼠抗THSD7A单抗A3 (antibody, V domains shown, Selected from a phage scFv library of immunised mice; variable regions cloned into a eukaryotic expression vector and expressed in 293T cells) VH: QSVKESGGRLVTPGGTLTLTCTVSGFSLSTYYMSWVRQAPGKGLEWIGSIESYGDRYYATWAKGRFTISKTSSTTVDLKMTSLTASDTATYFCTRNDLSWDNDNIWGPGTLVTVSS VL: DVQMTQTPSSVSVSVGGTVTINCQASQSVYGNNELNWYQQKSGQPPKLLIYKAGTLASGVPSRFSGSGSGTQFTLTISDLECDDAAIYYCQGGYWGQRAFGGGTKLEIK | – | – | – | – | – | – | – | – | – | – | binds |
